# Read-outs that look alike come from different tables or passages of the source.
# Key:
# [1] = molecular target: heliorhodopsin 48C12 (actinobacterium (fosmid from freshwater lake Kinneret)); experiment: crystal structure
# [2] = molecular target: heliorhodopsin 48C12 (actinobacterium (fosmid from freshwater lake Kinneret)); experiment: crystal structure; remark: listed apart in the source
substance,measurement,setting,value
heliorhodopsin 48C12 (from UniProt A0A2R4S913 1-256) (natural protein),stoichiometry N,[1],2
same,stoichiometry N,[2],2

# Source: doi:10.1101/767665
